Data: patent US12139520B2 (priority 2020, dated 2024)
Numbered stars: 1 amine (or outer) side, 2 acyl side, 3 side chain; on linkers, the order of the positions; unused ones are H or OH. Bridge positions count the residues as written; N and C are the ends. Square brackets hold non-standard residues; d marks the D form. Ends that are not written are not given here. * marks the point of attachment. C20 diacid = O=C(O)CCCCCCCCCCCCCCCCCCC(=O)*; γGlu = O=C(O)[C@H](CCC(=O)[*:2])N[*:1]; Hyp = O=C(O)[C@@H]1C[C@@H](O)CN1

T1: hAMY3R (human, UniProt P30988)
T1 sequence 1: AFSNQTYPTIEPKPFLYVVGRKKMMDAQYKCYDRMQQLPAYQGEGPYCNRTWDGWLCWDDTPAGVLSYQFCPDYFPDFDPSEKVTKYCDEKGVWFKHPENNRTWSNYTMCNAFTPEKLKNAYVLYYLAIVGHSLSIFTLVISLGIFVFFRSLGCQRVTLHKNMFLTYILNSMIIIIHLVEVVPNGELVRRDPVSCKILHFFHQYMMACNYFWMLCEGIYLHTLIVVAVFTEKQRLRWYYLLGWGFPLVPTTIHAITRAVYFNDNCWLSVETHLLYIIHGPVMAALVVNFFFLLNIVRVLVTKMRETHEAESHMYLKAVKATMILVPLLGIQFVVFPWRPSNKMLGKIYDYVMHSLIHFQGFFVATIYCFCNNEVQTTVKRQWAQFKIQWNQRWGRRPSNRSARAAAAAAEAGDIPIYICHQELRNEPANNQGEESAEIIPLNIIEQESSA
T1 sequence 2: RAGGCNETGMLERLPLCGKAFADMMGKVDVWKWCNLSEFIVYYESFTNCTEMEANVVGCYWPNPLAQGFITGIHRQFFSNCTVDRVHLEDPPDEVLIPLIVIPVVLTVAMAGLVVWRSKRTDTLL


molecular target: T1, hAMY3R; experiment: cell-based or functional assay

hAMY3R EC50 (cAMP) | Binder
0.048 nM | {C20 diacid-γGlu}-KCNTATCTVIRLAHQIYQFTDKDKDNVAPPTNVGSNG[Hyp]-NH2 (disulfide 2-7 (inferred); ends not checked) [SEQ ID NO: 159]
0.051 nM | GCRTGTCTVQRLAHQIYQFTDKDKDNVAPRTKIGPQG[Hyp]-NH2 (disulfide 2-7 (inferred); ends not checked) [SEQ ID NO: 161]
0.051 nM | KCNTATCATQRLANFLVHSSNNFGAILPSTKIGPNGY [SEQ ID NO: 162]
0.008 nM | KCNFATCTVQRLAHQIYQFTDKDKDNVAPRTEVGSNG[Hyp]-NH2 (disulfide 2-7 (inferred); ends not checked) [SEQ ID NO: 17]
0.056 nM | GCRFGTCTVQRLAHQIYQFTDKDKDNVAPRSKVSPQG[Hyp]-NH2 (disulfide 2-7 (inferred); ends not checked) [SEQ ID NO: 167]
0.062 nM | GCRFGTCTVQRLAHQIYQFTDKDKDNVAPRSKISPQT[Hyp]-NH2 (disulfide 2-7 (inferred); ends not checked) [SEQ ID NO: 168]
0.063 nM | GCRFGTCTVQRLAHQIYQFTDKDKDNVAPRSKISPQG[Hyp]-NH2 (disulfide 2-7 (inferred); ends not checked) [SEQ ID NO: 169]
0.064 nM | GCRTGTCTVQRLAHQIYQFTDKDKDNVAPRTNISPNG[Hyp]-NH2 (disulfide 2-7 (inferred); ends not checked) [SEQ ID NO: 170]
0.066 nM | GCRTGTCTVQRLAHQIYQFTDKDKDNVAPRSNVSPNGY [SEQ ID NO: 172]

More lines, now with the values behind:

Binder | hAMY3R EC50 (cAMP)
GCRTGTCTVQRLAHQIYQFTDKDKDNVAPRTNIGPQGY [SEQ ID NO: 160] | 0.05 nM
GCRTGTCTVQRLAHQIYQFTDKDKDNVAPRTNVSPNG[Hyp]-NH2 (disulfide 2-7 (inferred); ends not checked) [SEQ ID NO: 163] | 0.053 nM
GCRFGTCTVQRLAHQIYQFTDKDKDNVAPRTKISPQGY [SEQ ID NO: 164] | 0.054 nM
GCRTGTCTVQRLAHQIYQFTDKDKDNVAPRSNIGPQG[Hyp]-NH2 (disulfide 2-7 (inferred); ends not checked) [SEQ ID NO: 165] | 0.054 nM
GCRTGTCTVQRLAHQIYQFTDKDKDNVAPRSNVSPNG[Hyp]-NH2 (disulfide 2-7 (inferred); ends not checked) [SEQ ID NO: 166] | 0.056 nM
GCRWGTCTVQRLAHQIYQFTDKFKDNVAPRSKISPQT[Hyp]-NH2 (disulfide 2-7 (inferred); ends not checked) [SEQ ID NO: 171] | 0.064 nM

molecular target: hAM1R (human, UniProt Q16602); experiment: cell-based or functional assay

hAM1R EC50 (cAMP) | Binder
> 5000 nM | {C20 diacid-γGlu}-KCNTATCTVIRLAHQIYQFTDKDKDNVAPPTNVGSNG[Hyp]-NH2 (disulfide 2-7 (inferred); ends not checked) [SEQ ID NO: 159]
2980 nM | GCRTGTCTVQRLAHQIYQFTDKDKDNVAPRTKIGPQG[Hyp]-NH2 (disulfide 2-7 (inferred); ends not checked) [SEQ ID NO: 161]
> 5000 nM | KCNTATCATQRLANFLVHSSNNFGAILPSTKIGPNGY [SEQ ID NO: 162]
295 nM | KCNFATCTVQRLAHQIYQFTDKDKDNVAPRTEVGSNG[Hyp]-NH2 (disulfide 2-7 (inferred); ends not checked) [SEQ ID NO: 17]
2980 nM | GCRFGTCTVQRLAHQIYQFTDKDKDNVAPRSKVSPQG[Hyp]-NH2 (disulfide 2-7 (inferred); ends not checked) [SEQ ID NO: 167]
> 5000 nM | GCRFGTCTVQRLAHQIYQFTDKDKDNVAPRSKISPQT[Hyp]-NH2 (disulfide 2-7 (inferred); ends not checked) [SEQ ID NO: 168]
2980 nM | GCRFGTCTVQRLAHQIYQFTDKDKDNVAPRSKISPQG[Hyp]-NH2 (disulfide 2-7 (inferred); ends not checked) [SEQ ID NO: 169]
2980 nM | GCRTGTCTVQRLAHQIYQFTDKDKDNVAPRTNISPNG[Hyp]-NH2 (disulfide 2-7 (inferred); ends not checked) [SEQ ID NO: 170]
2980 nM | GCRTGTCTVQRLAHQIYQFTDKDKDNVAPRSNVSPNGY [SEQ ID NO: 172]

Further lines, the binder ahead of its results:

Binder | hAM1R EC50 (cAMP)
GCRTGTCTVQRLAHQIYQFTDKDKDNVAPRTNIGPQGY [SEQ ID NO: 160] | 2980 nM
GCRTGTCTVQRLAHQIYQFTDKDKDNVAPRTNVSPNG[Hyp]-NH2 (disulfide 2-7 (inferred); ends not checked) [SEQ ID NO: 163] | 2980 nM
GCRFGTCTVQRLAHQIYQFTDKDKDNVAPRTKISPQGY [SEQ ID NO: 164] | 106 nM
GCRTGTCTVQRLAHQIYQFTDKDKDNVAPRSNIGPQG[Hyp]-NH2 (disulfide 2-7 (inferred); ends not checked) [SEQ ID NO: 165] | 2980 nM
GCRTGTCTVQRLAHQIYQFTDKDKDNVAPRSNVSPNG[Hyp]-NH2 (disulfide 2-7 (inferred); ends not checked) [SEQ ID NO: 166] | 2980 nM
GCRWGTCTVQRLAHQIYQFTDKFKDNVAPRSKISPQT[Hyp]-NH2 (disulfide 2-7 (inferred); ends not checked) [SEQ ID NO: 171] | > 5000 nM
